From article PMC4906154, “Mitochondrial disease-related mutations at the cytochrome b-iron–sulfur protein (ISP) interface: Molecular effects on the large-scale motion of ISP and superoxide generation studied in Rhodobacter capsulatus cytochrome bc1^” (Biochimica et Biophysica Acta, 2016)
Residue numbers refer to the chain shown, from its start. Numbers in names are those of the source.

Substrate: CCCCCCCCCCc1c(C)c(O)c(OC)c(OC)c1O
Assay: steady-state cytochrome c reduction, spectroscopic, Michaelis-Menten fit
Assay type: biochemical, Rhodobacter capsulatus
Details: 20 μM bovine heart cytochrome c, 50 mM Tris pH 8.0, 0.01% DDM, 100 mM NaCl, DBH2 0.5-20 μM, Qo site, turnover given as Vmax

B1: cytochrome bc1 (R. capsulatus bc1 complex) (Rhodobacter capsulatus) (protein)
chain 1: MSGIPHDHYEPKTGIEKWLHDRLPIVGLVYDTIMIPTPKNLNWWWIWGIVLAFTLVLQIVTGIVLAIDYTPHVDLAFASVEHIMRDVNGGWAMRYIHANGASLFFLAVYIHIFRGLYYGSYKAPREITWIVGMVIYLLMMGTAFMGYVLPWGQMSFWGATVITGLFGAIPGIGPSIQAWLLGGPAVDNATLNRFFSLHYLLPFVIAALVAIHIWAFHTTGNNNPTGVEVRRTSKADAEKDTLPFWPYFVIKDLFALALVLLGFFAVVAYMPNYLGHPDNYIQANPLSTPAHIVPEWYFLPFYAILRAFAADVWVVILVDGLTFGIVDAKFFGVIAMFGAIAVMALAPWLDTSKVRSGAYRPKFRMWFWFLVLDFVVLTWVGAMPTEYPYDWISLIASTYWFAYFLVILPLLGATEKPEPIPASIEEDFNSHYGNPAE
chain 2: MSHAEDNAGTRRDFLYHATAATGVVVTGAAVWPLINQMNASADVKAMSSIFVDVSAVEVGTQLTVKWRGKPVFIRRRDEKDIELARSVPLGALRDTSAENANKPGAEATDENRSLAAFDGTNTGEWLVMLGVCTHLGCVPMGDKSGDFGGWFCPCHGSHYDSAGRIRKGPAPRNLDIPVAAFVDETTIKLG
notes: petABC operon from plasmid pPET1, C-terminal Strep-tag on cytochrome b, expressed in R. capsulatus MT-RBC1 (host), DDM-solubilised from chromatophores, Strep-tag purified; homodimer of 3 catalytic subunits; with Cytochrome c1
With B1 as the protein, how does the Km read?
Its Km is 2.3 ± 0.5 µM.

What about the kcat of the same protein?
The kcat was 146 ± 9 s⁻¹.

B2: cytochrome bc1 (R. capsulatus bc1 complex) (Rhodobacter capsulatus; P0CY47:G332D) (protein)
chain 1: B1 chain 1 with G332D
chain 2: B1 chain 2
notes: as for B1
Which results are given for B2?
Km: 1.1 ± 0.2 µM; kcat: 45 ± 2 s⁻¹
